Read-outs that look alike come from different tables or passages of the source.
Experiments:
Experiment in all cases: SPR
RPL12 unmodified peptide [1] = biological target: T1, RPL12 unmodified peptide (D. melanogaster, UniProt Q9W1B9)
[2] = biological target: T2, RPL12 peptide trimethylated on lysine 3 (D. melanogaster, UniProt Q9W1B9, trimethyl-lysine at 3 (K3me3))
[3] = biological target: RPL12 peptide dimethylated on lysine 3 (D. melanogaster, UniProt Q9W1B9, dimethyl-lysine at 3 (K3me2))
RPL12 unmodified peptide [4] = biological target: T1, RPL12 unmodified peptide; remark: listed apart in the source
[5] = biological target: T2, RPL12 peptide trimethylated on lysine 3; remark: listed apart in the source

Kd (RPL12 unmodified peptide [1]) | Kd [2] | Kd [3] | koff [3] | Kd (RPL12 unmodified peptide [4]) | koff (RPL12 unmodified peptide [4]) | koff [5] | Binder
> 1000 µM | 292 µM | – | – | – | – | – | GST-HP1CD (HP1 chromodomain fused to GST) (domain or fragment) not shown
– | – | 238 µM | 0.00099 s⁻¹ | 624 µM | 0.00076 s⁻¹ | 0.00082 s⁻¹ | GST-CortoCD (Corto chromodomain fused to GST) (domain or fragment) TASSNSNAAPAPSPQKDYSIPLHVDCSVEYELPNQPKPPAGQRVEPLLMIHPCYFRKMESQRRSPFVNNMHATARAV

Source: publication PMC3469418 (2012)
